Source: paper PMC2154361

Biological target: RIM1α C2B domain
Experiment: AUC

- Kd: 90 µM
- stoichiometry N: 2
Substance: RIM1α C2B domain (domain or fragment)
